Where a chain is given by its changes, count along the chain named.
B1: NMC-103: mouse monoclonal antibody of the IgG1 isotype that binds to NMC-P1 (SEQ ID NO:1); VH SEQ ID NO:36, VL SEQ ID NO:37 (antibody, V domains shown)
VH: EVQLQESGGGLVQPGGSLRLSCTTSGFTFTHYYMSWVRQPPGKALEWLGFIRNKAKGYTAEYSASVKGRFTISRDNSQSILYLQMNTLRPEDSATYYCARDIGDNWGQGTLVTVSS
VL: DIVMTQAAFSNPVTLGTSASISCRSSKNLLHSNGITYLYWYLQRPGQSPQLLISRVSNLASGVPNRFSGSESGTDFTLRISRVEAEDVGVYFCAQLLELPYTFGGGTKLEIK
modifications: mAb NMC-103 Heavy Chain Variable Region; mAb NMC-103 Light Chain Variable Region
B2: NMC-H103 (VH4/VK3): humanized NMC-103 variant, human IgG1, VH4 (SEQ ID NO:299) and VK3 (SEQ ID NO:297) (antibody, V domains shown)
VH: B1 VH with Q5V, G16P, P40A, A44G, Q78K, I80T, T87S, P90A, S93T, T95V
VL: B1 VL with A7T, A8P, F9L, N11S, T17Q, S18P, R44K, N65D, R79K, L109V
modifications: human IgG1 constant regions lacking entries; mAb NMC-H103.VH4Heavy Chain Variable Region; mAb NMC-H103.VK3Light Chain Variable Region

Tests used:
[1] = tested on: human pancreatic cancer MIAPaCa-2 cells; test: Complement-dependent cytotoxicity with normal human serum (PI staining); format: cell-based; conditions: antibody 30 μg/ml, NHS 1:10, 2 hours
Procedure: Methodology used: Cells seeded in 24-well dishes were grown overnight at 37° C. in a humidified atmosphere supplied with 5% CO2-95% air mixture. The following day the cells were thoroughly washed with ice-cold PBS and incubated with HDM2-specific mAb NMC-103 diluted in culture medium containing 1% BSA to a final antibody concentration of 30 μg/ml. After 30 min, NHS was added to the cells at a final concentration of 1:10 in the culture medium with 1% BSA together with 1% propidium iodide (PI) solution. Cells were then incubated with NHS for 2 hours and images were taken using EVOS FL fluorescent microscope (Life Technologies).
Methodology used: Cells seeded in 24-well dishes were grown over night at 37° C. in a humidified atmosphere supplied with 5% CO2-95% air mixture. The following day the cells were thoroughly washed with ice-cold PBS and incubated with various HDM2-specific antibodies (i.e., OP145, N-20 and C-18 antibodies; see description of the antibodies in Table 10) or control antibodies (directed to the intra-cellular protein Cytochrome C) diluted in culture medium containing 1% BSA to a final antibody concentration of 5-10 ug/ml. After 30 min, NHS was added to the cells to make a final concentration of at 1:30 in the culture medium with 1% BSA together with 1% propidium iodide (PI) solution. […]

[2] = tested on: HeLa cervical cancer cells; test: Cell-ELISA on intact cells; format: cell-based, human; conditions: mAb 5 μg/mL
Procedure: In a 96-well microplate, 15,000 cells/well were cultured overnight. The next day, unbound cells were washed off with sterile 1×PBS. The cells in each well were fixed with freshly prepared 4% buffered paraformaldehyde (pH 7.2) for 1 hour, followed by 3 washes with 1×PBS. The wells were then blocked with 5% BSA in PBS (100 μl/well) for 2 hours at room temperature. Microplate wells were then washed 5 times with 300 μl of ice cold 1×PBS. Monoclonal antibodies NMC-H103 (VH4/VK3) or NMC-C303 at 5 μg/mL in 1% BSA/PBS were then incubated with various cancer cells for 2 hours at room temperature. Wells were then washed with 300 μl of ice-cold 1×PBS for 5 times and corresponding secondary antibody HRP-GaH F(ab′)2 diluted 1:2000 or 1:4000 in PBS with 1% BSA were added at 100 μl/well for 1 hour at room temperature followed by washing 5 times with 300 μl of ice-cold 1×PBS. TMB Substrate Solution (1-Step™ Ultra TMB-ELISA, ThermoFisher, Cat. No. 34028) was then added at 50 μL to each microplate well and incubated at room temperature for 30 minutes. The reaction was stopped by addition of 50 μL of stop solution (ThermoFisher, Cat. No. SS04) to each well and absorbance of each well was measured at OD450 nm. The absorbance value of each experimental well was corrected for the absorbance value obtained from wells treated with isotype-identical mAbs included in each experiment.

[3] = tested on: human lung cancer A549 cells; test: A549 tumors in NSG mice with or without Hu-PBMCs; format: in vivo; conditions: 1 i.p. dose 10 mg/kg, n=4
Procedure: Subcutaneous tumors were prepared by implanting either mouse colon MC-38 cells (5×10^5 cells/mouse), human lung cancer A549 cells (5×10^6 cells/mouse) or mouse lung cancer M109 cells (0.5×10^5 cells/mouse) in the right flanks of NOD scid gamma mice (NSG: NOD.Cg-Prkdc^scidIl2rg^tm1Wjl/SzJ) purchased from Jacksons Laboratory. From day 7 after tumor implantation, the tumor volumes were measured 2 times/week with a digital caliper. In the case of mouse colon MC-38 cells and human lung cancer A549 cells study in NSG mice, once tumors reached an average volume of 300-400 mm^3, mice were randomly divided into 3 groups (n=4) and 7×10^6 human PBMCs (Stem Cell Technologies Cat #70025) was injected into the tail vein of mice in groups 1 and 3. Seven days later, in the case of mouse colon MC-38 cells study, mAb NMC-C303 antibody (10 mg/kg) was injected intraperitoneally (i.p.) to mice in groups 2 and 3 and human isotype control antibody (BioXCell BP02) into mice in group 1 on days 33 and 35 post tumor inoculation. In the case of human lung cancer A549 cells study, seven days post PBMC injection, mice in group 2 and 3 received 1 intraperitoneal injection of mAb NMC-H103 (VH4/VK3) (10 mg/kg) while mice in group 1 received 1 injection of human isotype control antibody (BioXCell BP02) and tumors were measure 5 days later. […]

Molecule	complement-mediated cytotoxicity (PI uptake) [1]	binding to intact, un-permeabilized cells, cell-based ELISA [2]	average tumor volume ([3]; NSG mice in presence of Hu-PBMCs) [mm^3]	average tumor volume ([3]; NSG mice in the absence of Hu-PBMCs) [mm^3]
B1	triggered complement-mediated cytotoxicity	–	–	–
B2	–	binding	784	1367

From patent US20220098328A1, “ANTIBODIES TO M(H)DM2/4 AND THEIR USE IN DIAGNOSING AND TREATING CANCER” (NomoCan Pharmaceuticals LLC, priority 2017, published 2022)
